We go through one molecule from doi:10.1101/2019.12.13.867358 (bioRxiv, 2019).

The experiment has as its target T1, Smc4 (S. cerevisiae, UniProt Q12267 1-1418).
T1 sequence (looked up): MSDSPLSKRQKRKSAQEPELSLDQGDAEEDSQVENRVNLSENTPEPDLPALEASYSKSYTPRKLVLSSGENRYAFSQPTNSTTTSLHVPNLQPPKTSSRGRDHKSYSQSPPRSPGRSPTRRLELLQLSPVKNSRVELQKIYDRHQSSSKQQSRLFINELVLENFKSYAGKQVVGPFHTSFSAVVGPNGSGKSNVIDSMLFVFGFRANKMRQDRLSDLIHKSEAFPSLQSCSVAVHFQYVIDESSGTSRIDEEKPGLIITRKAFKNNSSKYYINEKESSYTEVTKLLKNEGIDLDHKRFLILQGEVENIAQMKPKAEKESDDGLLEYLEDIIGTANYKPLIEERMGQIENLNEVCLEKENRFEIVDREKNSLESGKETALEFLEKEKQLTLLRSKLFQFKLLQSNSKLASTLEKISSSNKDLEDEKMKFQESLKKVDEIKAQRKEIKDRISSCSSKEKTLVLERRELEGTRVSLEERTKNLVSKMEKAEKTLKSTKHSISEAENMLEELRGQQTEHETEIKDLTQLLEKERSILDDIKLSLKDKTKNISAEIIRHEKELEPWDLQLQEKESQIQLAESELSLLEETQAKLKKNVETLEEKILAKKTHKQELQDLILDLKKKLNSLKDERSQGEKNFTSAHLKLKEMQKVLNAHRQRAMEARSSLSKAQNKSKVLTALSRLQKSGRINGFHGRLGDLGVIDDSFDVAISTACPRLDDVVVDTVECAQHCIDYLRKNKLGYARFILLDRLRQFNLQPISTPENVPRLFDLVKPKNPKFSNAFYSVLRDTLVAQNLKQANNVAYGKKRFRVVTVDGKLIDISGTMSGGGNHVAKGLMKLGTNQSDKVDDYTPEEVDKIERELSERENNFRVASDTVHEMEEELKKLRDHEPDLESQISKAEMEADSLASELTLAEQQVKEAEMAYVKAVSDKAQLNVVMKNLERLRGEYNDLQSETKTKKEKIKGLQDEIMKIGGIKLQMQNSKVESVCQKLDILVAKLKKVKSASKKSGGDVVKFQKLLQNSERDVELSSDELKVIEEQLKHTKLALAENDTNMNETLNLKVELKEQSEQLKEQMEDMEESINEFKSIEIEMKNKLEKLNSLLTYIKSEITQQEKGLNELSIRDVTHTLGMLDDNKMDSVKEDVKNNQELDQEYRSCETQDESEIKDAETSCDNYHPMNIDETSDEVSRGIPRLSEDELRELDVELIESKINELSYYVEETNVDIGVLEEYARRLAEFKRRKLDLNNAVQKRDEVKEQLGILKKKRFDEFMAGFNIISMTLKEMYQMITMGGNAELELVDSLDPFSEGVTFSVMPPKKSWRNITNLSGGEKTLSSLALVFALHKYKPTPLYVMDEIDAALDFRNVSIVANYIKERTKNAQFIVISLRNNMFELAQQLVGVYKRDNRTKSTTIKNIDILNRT
The experiment in a line: AFM imaging.

B1: Smc2 (natural protein, S. cerevisiae, UniProt P38989 1-1170, looked up)
chain: MKVEELIIDGFKSYATRTVITDWDPQFNAITGLNGSGKSNILDAICFVLGIASMSTVRASSLQDLIYKRGQAGVTKASVTIVFDNTDKSNSPIGFTNSPQISVTRQVVLGGTSKYLINGHRAPQQSVLQLFQSVQLNINNPNFLIMQGKITKVLNMKPSEILSLIEEAAGTKMFEDRREKAERTMSKKETKLQENRTLLTEEIEPKLEKLRNEKRMFLEFQSTQTDLEKTERIVVSYEYYNIKHKHTSIRETLENGETRMKMLNEFVKKTSEEIDSLNEDVEEIKLQKEKELHKEGTISKLENKENGLLNEISRLKTSLSIKVENLNDTTEKSKALESEIASSSAKLIEKKSAYANTEKDYKMVQEQLSKQRDLYKRKEELVSTLTTGISSTGAADGGYNAQLAKAKTELNEVSLAIKKSSMKMELLKKELLTIEPKLKEATKDNELNVKHVKQCQETCDKLRARLVEYGFDPSRIKDLKQREDKLKSHYYQTCKNSEYLKRRVTNLEFNYTKPYPNFEASFVHGVVGQLFQIDNDNIRYATALQTCAGGRLFNVVVQDSQTATQLLERGRLRKRVTIIPLDKIYTRPISSQVLDLAKKIAPGKVELAINLIRFDESITKAMEFIFGNSLICEDPETAKKITFHPKIRARSITLQGDVYDPEGTLSGGSRNTSESLLVDIQKYNQIQKQIETIQADLNHVTEELQTQYATSQKTKTIQSDLNLSLHKLDLAKRNLDANPSSQIIARNEEILRDIGECENEIKTKQMSLKKCQEEVSTIEKDMKEYDSDKGSKLNELKKELKLLAKELEEQESESERKYDLFQNLELETEQLSSELDSNKTLLHNHLKSIESLKLENSDLEGKIRGVEDDLVTVQTELNEEKKRLMDIDDELNELETLIKKKQDEKKSSELELQKLVHDLNKYKSNTNNMEKIIEDLRQKHEFLEDFDLVRNIVKQNEGIDLDTYRERSKQLNEKFQELRKKVNPNIMNMIENVEKKEAALKTMIKTIEKDKMKIQETISKLNEYKRETLVKTWEKVTLDFGNIFADLLPNSFAKLVPCEGKDVTQGLEVKVKLGNIWKESLIELSGGQRSLIALSLIMALLQFRPAPMYILDEVDAALDLSHTQNIGHLIKTRFKGSQFIVVSLKEGMFANANRVFRTRFQDGTSVVSIM
Turning to B1, the binding result is given as “binds”.
